Reference: patent US20020147129A1
Where no end group is shown, it is not given here.

B1: angiotensin IV (peptide)
peptide: VYIHPF
modifications: also: same id also used for [125I]Ang IV tracer, radioiodinated with chloramine T
B2: LVV-haemorphin-7 (peptide)
peptide: LVVYPWTQRF

What was measured:
[1] = biological target: AT4 receptor of sheep central nervous system (sheep); experiment: competition for 125I-LVV-haemorphin-7 binding, sheep cerebellar cortical membranes
[2] = biological target: angiotensin AT4 receptor of Macaca fascicularis brain (Macaca fascicularis); experiment: competition for [125I]Ang IV binding, monkey prefrontal cortical sections
[3] = biological target: AT4 receptor of bovine adrenal membranes (bovine); experiment: competition for 125I-Ang IV binding, bovine adrenal membranes
[4] = biological target: embryonic chicken Ang II receptor (chicken); experiment: competition for 125I[Sar1Ile8]Ang II binding, E13 chicken chorioallantoic membranes
[5] = biological target: embryonic chicken AT4 receptor (chicken); experiment: competition for [125I]Ang IV binding, E13 chicken chorioallantoic membranes
[6] = biological target: embryonic chicken AT4 receptor (chicken); experiment: cell-based or functional assay
[7] = biological target: AT4 receptor of sheep central nervous system (sheep); experiment: competition for [125I]Ang IV binding, sheep cerebellar cortical membranes

Sequence of embryonic chicken AT4 receptor (chicken) (F1NNE7 entry or part of it): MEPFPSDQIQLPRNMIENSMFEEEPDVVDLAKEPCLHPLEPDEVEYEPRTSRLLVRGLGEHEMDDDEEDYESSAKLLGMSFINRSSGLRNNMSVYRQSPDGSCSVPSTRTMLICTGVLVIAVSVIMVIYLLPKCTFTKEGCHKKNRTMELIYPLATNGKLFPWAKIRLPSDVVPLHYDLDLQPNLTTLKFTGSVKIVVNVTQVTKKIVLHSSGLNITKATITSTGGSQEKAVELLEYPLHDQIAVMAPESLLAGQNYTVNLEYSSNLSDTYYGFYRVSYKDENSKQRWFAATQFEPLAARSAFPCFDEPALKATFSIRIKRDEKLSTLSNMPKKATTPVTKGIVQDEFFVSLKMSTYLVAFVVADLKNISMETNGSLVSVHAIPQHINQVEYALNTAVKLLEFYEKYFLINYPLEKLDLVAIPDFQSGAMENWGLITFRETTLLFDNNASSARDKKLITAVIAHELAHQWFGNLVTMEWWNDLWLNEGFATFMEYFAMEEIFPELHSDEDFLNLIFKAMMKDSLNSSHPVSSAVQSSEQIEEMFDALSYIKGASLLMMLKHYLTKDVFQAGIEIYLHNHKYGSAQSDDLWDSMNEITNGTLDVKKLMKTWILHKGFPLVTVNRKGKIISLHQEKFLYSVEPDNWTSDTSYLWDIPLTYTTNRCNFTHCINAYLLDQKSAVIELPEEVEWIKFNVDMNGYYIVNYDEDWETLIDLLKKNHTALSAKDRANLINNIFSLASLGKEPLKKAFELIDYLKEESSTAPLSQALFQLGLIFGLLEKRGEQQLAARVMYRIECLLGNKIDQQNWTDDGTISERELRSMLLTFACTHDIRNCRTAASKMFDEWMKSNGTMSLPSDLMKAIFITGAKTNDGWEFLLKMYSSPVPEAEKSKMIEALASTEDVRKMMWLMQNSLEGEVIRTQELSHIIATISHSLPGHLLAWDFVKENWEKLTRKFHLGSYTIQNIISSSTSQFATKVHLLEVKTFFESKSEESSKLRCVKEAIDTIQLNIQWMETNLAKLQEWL
Sequence of embryonic chicken Ang II receptor (chicken) (P79785 whole entry): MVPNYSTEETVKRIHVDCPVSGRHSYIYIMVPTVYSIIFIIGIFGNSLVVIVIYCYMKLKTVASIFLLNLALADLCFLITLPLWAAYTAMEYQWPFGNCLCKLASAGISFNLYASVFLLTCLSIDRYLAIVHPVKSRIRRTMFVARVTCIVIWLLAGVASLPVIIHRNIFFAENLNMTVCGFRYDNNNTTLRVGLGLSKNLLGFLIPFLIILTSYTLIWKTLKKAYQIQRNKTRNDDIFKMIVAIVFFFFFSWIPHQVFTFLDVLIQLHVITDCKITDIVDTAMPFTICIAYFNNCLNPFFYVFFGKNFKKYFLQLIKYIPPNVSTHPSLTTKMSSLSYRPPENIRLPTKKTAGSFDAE

Binder | IC50 [1] | IC50 [2] | affinity in competing for ^125I-Ang IV binding [3] | IC50 [4] | IC50 [5] | inhibition of neurite outgrowth from E11 chicken sympathetic neurons: half maximal inhibition [6] | inhibition of neurite outgrowth from E11 chicken sympathetic neurons: maximal effect [6] | inhibition of neurite outgrowth from E11 chicken sympathetic neurons: threshold [6] | IC50 [7]
B1 | 1 nM | 5 nM | 1 to 5 nM | 50000 nM | 18 nM | 100 pM | 1 nM | 10 pM | 1.13 nM
B2 | 5.6 nM | – | 1 to 5 nM | – | – | – | – | – | 2 nM
